Target: SHP2 (UniProt P35235)
Assay: co-immunoprecipitation, Western blot
Settings: reference: LAIR1 wild type; sites Y251,Y281

LAIR1 (from UniProt Q6GTX8) LAIR1 Y251/281F
binding against the reference: weaker

From paper PMC10579300
